In assay [1] the target is T1, Macaque 46 mer peptide (RB exon of macaque CD45RB) (macaque).
T1 construct: synthetic peptide
T1 peptide: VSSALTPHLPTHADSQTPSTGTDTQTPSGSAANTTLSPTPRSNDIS
Kind of assay: recombinant antibody on peptide.

Assay [2] concerns the target T2, Human 18 mer peptide (human).
T2 construct: synthetic peptide from the RB exon
T2 peptide: VSSVQTPHLPTHADSQTPC
Briefly: recombinant antibody on peptide.

Assay [3] has as its target T3, Human 20.1 peptide (human).
T3 construct: synthetic peptide from the RB exon
T3 peptide: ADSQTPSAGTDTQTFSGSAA
Kind of assay: recombinant antibody on peptide.

The target in assay [4] is T4, Human 20.2 peptide (human).
T4 construct: synthetic peptide from the RB exon
T4 peptide: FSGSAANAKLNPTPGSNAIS
Briefly: recombinant antibody on peptide.

Assay [5] has as its target T5, Human 46 mer peptide (RB exon of human CD45) (human).
T5 construct: synthetic peptide; also called CD45RB 46 mer
T5 peptide: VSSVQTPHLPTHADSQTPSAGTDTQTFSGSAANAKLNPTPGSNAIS
Kind of assay: recombinant antibody on peptide.

Assay [6] addresses T6, Human CD45RB (format not stated) (human, UniProt P08575-9 26-1192, limits assumed).
T6 construct: also called RB exon of CD45
T6 sequence (looked up): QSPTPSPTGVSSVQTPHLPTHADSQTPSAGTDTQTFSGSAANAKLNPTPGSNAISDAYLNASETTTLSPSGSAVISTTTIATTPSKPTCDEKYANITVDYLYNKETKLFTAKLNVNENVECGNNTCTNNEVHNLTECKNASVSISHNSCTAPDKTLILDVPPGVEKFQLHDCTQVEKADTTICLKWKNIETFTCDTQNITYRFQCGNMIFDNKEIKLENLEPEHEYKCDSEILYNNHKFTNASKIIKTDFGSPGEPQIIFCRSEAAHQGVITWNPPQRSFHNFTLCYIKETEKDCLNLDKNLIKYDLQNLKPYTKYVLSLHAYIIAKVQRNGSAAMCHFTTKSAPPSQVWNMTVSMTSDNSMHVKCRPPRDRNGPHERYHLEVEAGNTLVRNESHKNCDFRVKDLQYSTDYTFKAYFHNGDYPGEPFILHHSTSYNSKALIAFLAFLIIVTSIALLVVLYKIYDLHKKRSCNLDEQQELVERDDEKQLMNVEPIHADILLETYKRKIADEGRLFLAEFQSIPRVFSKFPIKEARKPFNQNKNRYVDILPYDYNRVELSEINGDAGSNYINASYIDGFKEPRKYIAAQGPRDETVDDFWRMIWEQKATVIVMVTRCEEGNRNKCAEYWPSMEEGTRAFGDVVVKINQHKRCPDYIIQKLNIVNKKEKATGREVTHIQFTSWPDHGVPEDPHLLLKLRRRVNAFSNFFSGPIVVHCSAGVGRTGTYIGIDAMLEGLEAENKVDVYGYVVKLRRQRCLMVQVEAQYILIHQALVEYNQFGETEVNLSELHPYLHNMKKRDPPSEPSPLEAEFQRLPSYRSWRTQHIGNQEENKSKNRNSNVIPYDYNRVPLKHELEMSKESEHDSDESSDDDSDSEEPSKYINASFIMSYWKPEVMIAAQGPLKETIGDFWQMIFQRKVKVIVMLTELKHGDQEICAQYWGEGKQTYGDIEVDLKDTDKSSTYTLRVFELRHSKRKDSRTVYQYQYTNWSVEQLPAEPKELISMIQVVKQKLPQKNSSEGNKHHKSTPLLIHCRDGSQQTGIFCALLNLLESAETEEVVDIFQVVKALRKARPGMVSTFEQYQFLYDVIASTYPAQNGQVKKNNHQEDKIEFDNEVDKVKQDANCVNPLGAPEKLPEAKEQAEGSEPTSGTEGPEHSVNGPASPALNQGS
Briefly: screening of harvest 9.

Assay [7] deals with T6, Human CD45RB (format not stated). Kind of assay: screening of harvest 2.
The target of assay [8] is T7, chimeric CD45RB (full length human CD45RB with the macaque RB exon) transiently expressed in CHO cells (human; macaque, UniProt P08575-9 26-33; P08575-9 81-1192).
T7 construct: whole chimeric protein on CHO cells; also called Macaque CD45RB CHO
T7 sequence: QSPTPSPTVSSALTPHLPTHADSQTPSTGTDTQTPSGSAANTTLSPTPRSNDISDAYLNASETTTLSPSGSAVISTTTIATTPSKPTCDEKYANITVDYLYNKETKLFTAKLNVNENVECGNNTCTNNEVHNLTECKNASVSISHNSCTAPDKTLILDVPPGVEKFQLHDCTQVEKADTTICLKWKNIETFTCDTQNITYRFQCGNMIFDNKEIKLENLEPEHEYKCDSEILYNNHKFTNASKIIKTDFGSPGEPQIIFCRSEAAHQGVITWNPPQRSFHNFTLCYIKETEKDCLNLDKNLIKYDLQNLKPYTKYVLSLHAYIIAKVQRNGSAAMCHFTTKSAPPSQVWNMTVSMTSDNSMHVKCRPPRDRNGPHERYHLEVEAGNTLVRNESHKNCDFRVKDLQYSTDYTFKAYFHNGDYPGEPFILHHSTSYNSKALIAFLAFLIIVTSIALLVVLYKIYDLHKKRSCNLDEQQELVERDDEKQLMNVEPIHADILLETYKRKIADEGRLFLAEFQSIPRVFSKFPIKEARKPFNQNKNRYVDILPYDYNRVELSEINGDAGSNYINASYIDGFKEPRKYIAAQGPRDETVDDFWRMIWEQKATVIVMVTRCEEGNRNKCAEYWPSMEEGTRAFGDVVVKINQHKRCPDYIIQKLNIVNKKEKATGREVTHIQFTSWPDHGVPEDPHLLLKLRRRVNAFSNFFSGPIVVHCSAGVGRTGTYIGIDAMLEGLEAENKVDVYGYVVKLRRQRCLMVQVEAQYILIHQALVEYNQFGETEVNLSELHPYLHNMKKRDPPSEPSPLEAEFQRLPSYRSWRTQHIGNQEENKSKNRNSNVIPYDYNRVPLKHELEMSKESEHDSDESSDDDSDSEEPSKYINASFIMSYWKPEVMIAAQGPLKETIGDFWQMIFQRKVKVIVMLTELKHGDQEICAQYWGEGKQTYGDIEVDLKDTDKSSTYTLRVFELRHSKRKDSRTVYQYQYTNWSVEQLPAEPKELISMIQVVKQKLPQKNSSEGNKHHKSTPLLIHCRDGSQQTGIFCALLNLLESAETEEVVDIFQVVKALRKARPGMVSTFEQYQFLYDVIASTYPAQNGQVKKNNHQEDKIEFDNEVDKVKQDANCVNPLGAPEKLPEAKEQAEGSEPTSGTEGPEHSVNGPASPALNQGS
Briefly: transiently transfected CHO cells.

B1: AB-CD45RB-XG2-648 (antibody, human IgG2, V domains shown)
VH: QVQLVESGGGLVKPGGSLRLSCAASGFTFNVYYMNWIRQAPGKGLEWVSYISTSSSAIYYADSVKGRFTISRDNAKNSLYLQMNSLRAEDTAVYYCARRTGSTTVFDYWGQGTLVTVSS
VL: EIVLTQSPATLSVSPGERATLSCRASQSINNNLAWYQQKPGQAPRLLIYGASTRATGIPAKFSGSGSGTEFTLTISSLQSENFAVYYCQQYNKWPLTFGGGTKVEIK
notes: recombinant human IgG2 kappa; also called sc648
B1: the binding result in assay [1] was “no binding”; in assay [2] it was “no binding”; in assay [3] it was “no binding”; in assay [4] it was “no binding”; in assay [5] it was “no binding”; in assay [6] it was “binds”.

B2: AB-CD45RB-XG2-009 (antibody, human IgG2, V domains shown)
VH: QVQLVESGGGVVQPGRSLRLSCAASGFTFSNYGMHWVRQAPGKGLEWVAVIWYDGSKRFYAGSVKGRFTISRDNSKNTLYLQMNSLRAEDTAVYYCARTTDYWGQGTMVTVSS
VL: DIVMTQTPLSLSVTPGQPASISCKSSQSLLHSDGKTYLYWYLQKPGQPPQLLIYEVSNRFSGVPDRFSGSGSGTDFTLKISRVEAEDVGLYWCMQSIQLPITFGQGTRLEIK
notes: recombinant human IgG2 kappa; also called sc009; 16C9 (sc009)
With B2, the binding result is on record as “binds” in assay [7]; “no binding” in assay [8]; “no binding” in assay [2]; “no binding” in assay [3]; “no binding” in assay [4]; “binds” in assay [5].

(Values after patent US20030232009A1 (Amgen, published 2003).)
